Experimental findings from patent US20180147232 are described below.

Chain of Flag-TSC2, P49815 (P49815 whole entry): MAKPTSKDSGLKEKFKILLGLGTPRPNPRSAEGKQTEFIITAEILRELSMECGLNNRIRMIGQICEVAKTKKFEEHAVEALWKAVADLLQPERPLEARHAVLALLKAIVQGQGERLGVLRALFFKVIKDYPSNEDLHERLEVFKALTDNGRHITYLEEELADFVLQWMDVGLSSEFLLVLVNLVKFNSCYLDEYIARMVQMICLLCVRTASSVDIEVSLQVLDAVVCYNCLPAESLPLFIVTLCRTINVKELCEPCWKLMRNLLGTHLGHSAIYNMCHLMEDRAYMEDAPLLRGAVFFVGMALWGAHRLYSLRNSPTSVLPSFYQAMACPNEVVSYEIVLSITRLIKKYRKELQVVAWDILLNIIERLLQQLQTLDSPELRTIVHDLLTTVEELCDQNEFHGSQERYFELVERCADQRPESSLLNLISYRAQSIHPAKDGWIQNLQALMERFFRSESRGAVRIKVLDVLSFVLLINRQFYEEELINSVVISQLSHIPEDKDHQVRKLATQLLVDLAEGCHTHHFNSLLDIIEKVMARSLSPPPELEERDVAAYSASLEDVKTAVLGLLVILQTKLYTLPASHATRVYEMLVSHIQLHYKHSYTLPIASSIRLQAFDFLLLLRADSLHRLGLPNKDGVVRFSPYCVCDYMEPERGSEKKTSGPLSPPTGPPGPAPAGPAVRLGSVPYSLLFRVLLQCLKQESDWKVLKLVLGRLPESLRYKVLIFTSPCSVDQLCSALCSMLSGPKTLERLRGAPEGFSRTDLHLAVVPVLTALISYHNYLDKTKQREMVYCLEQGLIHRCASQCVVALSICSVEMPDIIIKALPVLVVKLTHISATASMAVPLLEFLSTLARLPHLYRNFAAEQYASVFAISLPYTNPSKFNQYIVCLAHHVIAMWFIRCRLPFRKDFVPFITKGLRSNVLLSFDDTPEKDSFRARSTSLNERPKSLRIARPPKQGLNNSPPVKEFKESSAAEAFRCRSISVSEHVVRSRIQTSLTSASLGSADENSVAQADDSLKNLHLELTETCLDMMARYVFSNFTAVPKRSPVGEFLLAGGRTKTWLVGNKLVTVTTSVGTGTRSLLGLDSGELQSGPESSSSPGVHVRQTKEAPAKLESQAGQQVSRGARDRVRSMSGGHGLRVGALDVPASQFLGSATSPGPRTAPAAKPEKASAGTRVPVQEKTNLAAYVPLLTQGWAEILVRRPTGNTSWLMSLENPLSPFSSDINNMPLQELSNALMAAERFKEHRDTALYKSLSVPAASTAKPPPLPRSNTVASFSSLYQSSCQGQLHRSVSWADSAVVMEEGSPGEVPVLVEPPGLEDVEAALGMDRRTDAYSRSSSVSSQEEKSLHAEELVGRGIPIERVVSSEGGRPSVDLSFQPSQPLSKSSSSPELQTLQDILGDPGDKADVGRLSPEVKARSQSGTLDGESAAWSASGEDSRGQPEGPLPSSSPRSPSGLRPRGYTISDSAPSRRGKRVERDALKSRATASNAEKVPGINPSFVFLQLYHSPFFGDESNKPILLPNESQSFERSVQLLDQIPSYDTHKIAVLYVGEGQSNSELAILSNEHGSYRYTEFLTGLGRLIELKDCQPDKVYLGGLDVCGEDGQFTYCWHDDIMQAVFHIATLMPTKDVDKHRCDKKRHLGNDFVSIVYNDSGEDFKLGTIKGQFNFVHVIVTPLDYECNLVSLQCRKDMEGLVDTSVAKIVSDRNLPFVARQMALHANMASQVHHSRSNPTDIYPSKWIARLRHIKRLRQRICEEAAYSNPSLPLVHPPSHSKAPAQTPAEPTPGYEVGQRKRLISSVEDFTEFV
Chain of Flag-TSC2 6A, P49815 (P49815 other isoform, or with tags, fused parts or gaps): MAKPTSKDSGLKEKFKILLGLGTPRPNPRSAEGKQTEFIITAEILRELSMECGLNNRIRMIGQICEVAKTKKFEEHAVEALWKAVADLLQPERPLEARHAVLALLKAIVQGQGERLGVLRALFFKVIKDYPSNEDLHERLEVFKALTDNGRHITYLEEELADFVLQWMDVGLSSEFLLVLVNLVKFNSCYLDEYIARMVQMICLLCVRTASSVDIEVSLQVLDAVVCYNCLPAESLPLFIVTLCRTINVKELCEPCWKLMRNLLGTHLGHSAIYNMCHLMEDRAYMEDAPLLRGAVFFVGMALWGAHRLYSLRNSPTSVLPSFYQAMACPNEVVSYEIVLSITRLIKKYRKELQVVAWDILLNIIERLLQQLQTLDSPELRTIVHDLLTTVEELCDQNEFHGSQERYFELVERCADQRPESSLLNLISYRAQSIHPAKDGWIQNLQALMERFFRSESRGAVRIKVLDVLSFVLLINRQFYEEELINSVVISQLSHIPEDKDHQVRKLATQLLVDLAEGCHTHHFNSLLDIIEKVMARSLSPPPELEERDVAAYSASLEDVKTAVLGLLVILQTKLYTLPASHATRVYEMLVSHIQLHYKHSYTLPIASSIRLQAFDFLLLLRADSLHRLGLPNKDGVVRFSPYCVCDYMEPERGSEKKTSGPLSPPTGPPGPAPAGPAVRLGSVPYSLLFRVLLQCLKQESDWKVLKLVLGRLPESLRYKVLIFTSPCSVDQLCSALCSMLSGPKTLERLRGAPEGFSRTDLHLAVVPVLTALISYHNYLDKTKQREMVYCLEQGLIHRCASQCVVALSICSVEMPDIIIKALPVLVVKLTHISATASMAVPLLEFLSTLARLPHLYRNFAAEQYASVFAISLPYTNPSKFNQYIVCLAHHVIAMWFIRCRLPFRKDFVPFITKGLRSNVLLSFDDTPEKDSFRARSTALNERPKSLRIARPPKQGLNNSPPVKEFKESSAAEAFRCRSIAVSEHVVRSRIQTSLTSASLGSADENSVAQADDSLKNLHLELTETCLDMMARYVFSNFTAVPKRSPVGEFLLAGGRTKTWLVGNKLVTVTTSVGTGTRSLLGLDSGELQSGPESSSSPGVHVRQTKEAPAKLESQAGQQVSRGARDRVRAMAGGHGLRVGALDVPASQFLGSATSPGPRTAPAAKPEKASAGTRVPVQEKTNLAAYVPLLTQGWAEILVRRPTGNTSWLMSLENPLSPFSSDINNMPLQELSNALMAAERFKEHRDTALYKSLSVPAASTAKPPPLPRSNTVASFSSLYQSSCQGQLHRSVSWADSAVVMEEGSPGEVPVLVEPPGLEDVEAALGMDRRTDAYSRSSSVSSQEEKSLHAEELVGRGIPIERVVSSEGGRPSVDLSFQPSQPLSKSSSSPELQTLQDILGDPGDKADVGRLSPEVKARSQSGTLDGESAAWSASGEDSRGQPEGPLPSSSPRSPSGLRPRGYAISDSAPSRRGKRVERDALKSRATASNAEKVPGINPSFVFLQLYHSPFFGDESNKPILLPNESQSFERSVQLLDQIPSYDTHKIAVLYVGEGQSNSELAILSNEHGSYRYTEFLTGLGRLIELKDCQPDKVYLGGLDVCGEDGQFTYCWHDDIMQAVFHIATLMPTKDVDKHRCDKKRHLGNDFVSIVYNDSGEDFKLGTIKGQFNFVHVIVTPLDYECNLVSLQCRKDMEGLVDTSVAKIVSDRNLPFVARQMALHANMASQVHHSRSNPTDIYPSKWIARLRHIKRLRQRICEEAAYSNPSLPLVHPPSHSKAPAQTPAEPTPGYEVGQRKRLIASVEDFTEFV

B1: recombinant His-SGK1 (Δ60) (protein)
chain: ISQPQEPELMNANPSPPPSPSQQINLGPSSNPHAKPSDFHFLKVIGKGSFGKVLLARHKAEEVFYAVKVLQKKAILKKKEEKHIMSERNVLLKNVKHPFLVGLHFSFQTADKLYFVLDYINGGELFYHLQRERCFLEPRARFYAAEIASALGYLHSLNIVYRDLKPENILLDSQGHIVLTDFGLCKENIEHNSTTSTFCGTPEYLAPEVLHKQPYDRTVDWWCLGAVLYEMLYGLPPFYSRNTAEMYDNILNKPLQLKPNITNSARHLLEGLLQKDRTKRLGAKDDFMEIKSHVFFSLINWDDLINKKITPPFNPNVSGPNDLRHFDPEFTEEPVPNSIGKSPDSVLVTASVKEAAEAFLGFDYAPPTDSFL
Take B1: in the data set with Flag-TSC2 6A, P49815, the “phosphorylation of TSC2, in vitro kinase assay” value is reported as “Mutation of these six sites into the non-phosphorylatable amino acid alanine (TSC2 6A) completely abrogated the ability of SGK1 to phosphorylate TSC2 in vitro”. Also, in the data set with Flag-TSC2, P49815, the “phosphorylation of S939, S981, T993, S1130, S1132, T1462 and S1798 of TSC2 by mass spectrometry after the in vitro kinase assay” value was “we found increased phosphorylation in all these sites, except at T993”; the “phosphorylation of the RXRXX(S/T) sites of TSC2, in vitro kinase assay” value is “The addition of recombinant SGK1 kinase increased the phosphorylation of the RXRXX(S/T) (SEQ ID NO: 1) sites of TSC2 independent of the AKT activity”.
